Experiments:
human CCR8 (human) [1] = biological target: human CCR8 (human) (UniProt P51685); assay: binding affinity EC50, comparison of Table 12 (FACS on CCR8-expressing cells)
human CCR8 (human) [2] = biological target: human CCR8 (human) (UniProt P51685); assay: cell-based or functional assay

Sequence of human CCR8 (human) (P51685 whole entry): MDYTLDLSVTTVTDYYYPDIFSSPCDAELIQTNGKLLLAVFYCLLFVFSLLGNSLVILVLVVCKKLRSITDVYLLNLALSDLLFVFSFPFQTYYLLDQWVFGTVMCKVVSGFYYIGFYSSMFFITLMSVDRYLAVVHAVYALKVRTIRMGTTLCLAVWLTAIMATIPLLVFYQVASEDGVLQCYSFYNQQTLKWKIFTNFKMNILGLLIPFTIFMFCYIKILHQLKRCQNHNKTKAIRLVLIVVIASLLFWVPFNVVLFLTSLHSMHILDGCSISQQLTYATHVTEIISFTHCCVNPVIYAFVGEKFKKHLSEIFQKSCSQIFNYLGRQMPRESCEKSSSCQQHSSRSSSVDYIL

Substance | EC50 (human CCR8 (human) [1]) [nM] | Signal block Ca2+ (human CCR8 (human) [2]) [nM]
GS-1811 (antibody) | 0.29 | 4.34
S-531011 (antibody) | 0.243 | –

Reference: US20240352134A1
